Source: publication PMC4730846 (Science Advances, 2015)

Target: GroEL (Escherichia coli, UniProt P0A6F5 2-548)
Assay: proteinase K protection assay

GroEL, sequence (P0A6F5 2-548): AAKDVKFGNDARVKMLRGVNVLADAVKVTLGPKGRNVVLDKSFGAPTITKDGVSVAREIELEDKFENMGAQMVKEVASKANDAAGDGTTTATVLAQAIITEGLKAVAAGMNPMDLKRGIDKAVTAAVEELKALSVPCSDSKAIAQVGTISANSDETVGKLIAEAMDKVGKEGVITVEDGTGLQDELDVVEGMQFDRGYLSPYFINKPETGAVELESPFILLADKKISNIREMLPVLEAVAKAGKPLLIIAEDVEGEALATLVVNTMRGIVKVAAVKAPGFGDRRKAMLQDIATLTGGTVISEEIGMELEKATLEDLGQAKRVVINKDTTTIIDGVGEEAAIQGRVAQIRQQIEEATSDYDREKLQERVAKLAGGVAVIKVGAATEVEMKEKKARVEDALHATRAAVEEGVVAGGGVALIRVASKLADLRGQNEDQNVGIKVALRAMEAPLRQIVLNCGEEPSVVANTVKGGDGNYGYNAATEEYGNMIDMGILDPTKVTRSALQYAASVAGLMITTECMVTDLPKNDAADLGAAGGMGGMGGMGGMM

B1: GroES (natural protein)
chain: MNIRPLHDRVIVKRKEVETKSAGGIVLTGSAAAKSTRGEVLAVGNGRILENGEVKPLDVKVGDIVIFNDGYGVKSEKIDNEEVLIMSESDILAIVEA
- binding result: binds
